Measured values taken from patent US20150299264A1.
No end group written: not given here.

Molecular target: 40 non-kinase enzyme assays, including phosphatases and proteases
Assay: cell-based or functional assay
Settings: scale: % inhibition of activity at 100 µM MMI-0100

B1: MMI-0100 peptide (…; SEQ ID NO: 1) (peptide)
peptide: YARAAARQARAKALARQLGVAA
modifications: also: acetate salt
B1 was tested. Which inhibition of activity in enzyme assays in the presence and absence of 100 µM MMI-0100 did it give?
The inhibition of activity in enzyme assays in the presence and absence of 100 µM MMI-0100 was < 50.
